According to patent publication US20220235103A1 (Molecular Partners, published 2022):
Where two headings read alike, the source gives them in different places.

Key:
bio-RBD Fc Acro = bio-RBD Fc Acro (SARS-CoV-2); assay: SPR, single trace
bio-S ecto Sino [1] = biological target: T1, bio-S ecto Sino (SARS-CoV-2, UniProt P0DTC2 16-1213)
[2] = biological target: T2, SARS-CoV-2 (COVID-19) S protein RBD (cat. SPD-C5255, lot. BV3539b-203FF1-203K) (SARS-CoV-2, UniProt P0DTC2 319-537)
bio-S ecto Sino [3] = biological target: T1, bio-S ecto Sino; remark: listed apart in the source
bio-S ecto Sino [4] = biological target: T1, bio-S ecto Sino; remark: listed apart in the source
S ecto U [5] = biological target: T3, S ecto U (SARS-CoV-2, UniProt P0DTC2 16-1213)
S ecto U [6] = biological target: T3, S ecto U; assay: SPR, ProteOn XPR36, fitted curves (FIG. 9c)
[7] = biological target: T2, SARS-CoV-2 (COVID-19) S protein RBD …; remark: listed apart in the source
bio-S1 Acro [8] = biological target: T4, bio-S1 Acro (SARS-CoV-2, UniProt P0DTC2 16-685); assay: SPR, single trace
bio-S1 Acro [9] = biological target: T4, bio-S1 Acro; assay: SPR
bio-S ecto Sino [10] = biological target: T1, bio-S ecto Sino; assay: single trace

B1: vS07_26C03 (designed binder)
chain: MRGSHHHHHHGSDLGWKLLWAAQVGQDDEVRILLAAGADVNAKDDLGWTPLHIAAWVGHLEIVEVLLKAGADVNAKDFTGRTPLHHAATEGHLEIVKVLLKAGADVNAQDDVGHTPADLAALWGHEDIAEVLQKAA
notes: also called RN2
- binding result (bio-RBD Fc Acro): binds
- Kd (bio-S ecto Sino [1]): 23 nM

B2: ALE033 (designed binder)
chain: MRGSHHHHHHGSDLGKKLLEAARAGQDDEVRELLKAGADVNAKDYFSHTPLHLAARNGHLKIVEVLLKAGADVNAKDFAGKTPLHLAANEGHLEIVEVLLKAGADVNAQDIFGKTPADIAADAGHEDIAEVLQKAAGSPTPTPTTPTPTPTTPTPTPTGSDLGKKLLEAARAGQDDEVRELLKAGADVNAKDYFSHTPLHLAARNGHLKIVEVLLKAGADVNAKDFAGKTPLHLAANEGHLEIVEVLLKAGADVNAQDIFGKTPADIAADAGHEDIAEVLQKAAGSPTPTPTTPTPTPTTPTPTPTGSDLGKKLLQAARAGQLDEVRELLKAGADVNAKDREGITPLHLAAQHGHLEIVEVLLKAGADVNAKDVWGRTPLHLAAWQGHLEIVEVLLKAGADVNAKDLAGATPLHVAALYGHLEIVEVLLKAGADVNAQDKSGKTPADLAARAGHQDIAEVLQKAAGSPTPTPTTPTPTPTTPTPTPTGSDLGKKLLQAARAGQLDEVRELLKAGADVNAKDREGKTPLHVAAQEGHLEIVEVLLKAGADVNAKDVWGRTPLHLAAWIGHLEIVEVLLKAGADVNAKDVSGATPLHAAALHGHLEIVEVLLNAGADVNAQDKSGKTPADLAARAGHQDIAEVLQKAAGSPTPTPTTPTPTPTTPTPTPTGSDLGKKLLQAARAGQLDEVRELLKAGADVNAKDREGITPLHLAAQHGHLEIVEVLLKAGADVNAKDVWGRTPLHLAAWQGHLEIVEVLLKAGADVNAKDLAGATPLHVAALYGHLEIVEVLLKAGADVNAQDKSGKTPADLAARAGHQDIAEVLQKAA
- kon [2]: 1.54e+06 M⁻¹ s⁻¹

B3: vS07_23E04 (designed binder)
chain: MRGSHHHHHHGSDLGKKLLQAARAGQLDEVRELLKAGADVNAKDQEGITPLHVAAHQGHLEIVEVLLKAGADVNAKDVWGRTPLHLAAWRGHLEIVEVLLKAGADVNAKDHAGATPLHAAALSGHLEIVEVLLKAGADVNAQDKSGKTPADLAARAGHQDIAEVLQKAA
notes: also called R3c
- binding result (bio-RBD Fc Acro): binds
- koff (bio-S ecto Sino [3]): 0.000234 s⁻¹
- kon (bio-S ecto Sino [3]): 2.59e+06 M⁻¹ s⁻¹
- Kd (bio-S ecto Sino [1]): 0.09 nM

B4: vS07_12C06 (designed binder)
chain: MRGSHHHHHHGSDLGKKLLQAARAGQLDEVRELLKAGADVNAKDREGKTPLHVAAQEGHLEIVEVLLKAGADVNAKDVWGRTPLHLAAWIGHLEIVEVLLKAGADVNAKDVSGATPLHAAALHGHLEIVEVLLNAGADVNAQDKSGKTPADLAARAGHQDIAEVLQKAA
notes: also called R1b; Rb1
- binding result (bio-RBD Fc Acro): binds
- koff (bio-S ecto Sino [4]): 2.64e-05 s⁻¹
- kon (bio-S ecto Sino [4]): 1.26e+06 M⁻¹ s⁻¹
- Kd (bio-S ecto Sino [1]): 0.021 nM

B5: vS07_06F12 (designed binder)
chain: MRGSHHHHHHGSDLGKKLLQAARAGQLDEVRELLKAGADVNAKDREGWTPLHLAAHQGHLEIVEVLLKAGADVNAKDVFGRTPLHLAAWVGHLEIVEVLLKAGADVNAKDVSGATPLHPAAIYGHLEIVEVLLKAGADVNAQDKSGKTPADLAARAGHQDIAEVLQKAA
notes: also called R1a
- binding result (bio-RBD Fc Acro): binds
- koff (bio-S ecto Sino [4]): 0.000243 s⁻¹
- kon (bio-S ecto Sino [4]): 963000 M⁻¹ s⁻¹
- Kd (bio-S ecto Sino [1]): 0.25 nM

B6: vS07_29B10 (designed binder)
chain: MRGSHHHHHHGSDLGKKLLQAARAGQLDEVRELLKAGADVNAKDREGITPLHLAAQHGHLEIVEVLLKAGADVNAKDVWGRTPLHLAAWQGHLEIVEVLLKAGADVNAKDLAGATPLHVAALYGHLEIVEVLLKAGADVNAQDKSGKTPADLAARAGHQDIAEVLQKAA
notes: also called R3b
- binding result (bio-RBD Fc Acro): binds
- koff (bio-S ecto Sino [3]): 0.000148 s⁻¹
- kon (bio-S ecto Sino [3]): 1.82e+06 M⁻¹ s⁻¹
- Kd (bio-S ecto Sino [1]): 0.081 nM

B7: vS07_22E12 (designed binder)
chain: MRGSHHHHHHGSDLGKKLLQAARAGQLDEVRELLKAGADVNAKDKIGVTPLHIAAEVGHLEIVEVLLKAGADVNAKDVWGRTPLHLAAWSGHLEIVEVLVKAGADVNAKDIAGATPLHAAALFGHLEIVEVLLKVGADVNAQDKSGKTPADLAARAGHQDIAEVLQKAA
notes: also called R3a
- binding result (bio-RBD Fc Acro): binds
- koff (bio-S ecto Sino [3]): 0.000308 s⁻¹
- kon (bio-S ecto Sino [3]): 1.3e+06 M⁻¹ s⁻¹
- Kd (bio-S ecto Sino [1]): 0.24 nM

B8: vS07_14G03 (designed binder)
chain: MRGSHHHHHHGSDLGQKLLHAAQYGQDDEVRILLAAGADVNAKDKQGNTPLHIAAFHGHLEIVEVLLKAGADVNAKDQWGLTPLHLAAAWGHLEIVEVLLKAGADVNAQDNYGQTPADLAAESGHEDIAEVLQKAA
notes: also called S2a
- koff (S ecto U [5]): 0.00352 s⁻¹
- kon (S ecto U [5]): 4.49e+06 M⁻¹ s⁻¹
- Kd (S ecto U [6]): 0.79 nM

B9: ALE030 (designed binder)
chain: MRGSHHHHHHGSDLGKKLLEAARAGQDDEVRELLKAGADVNAKDYFSHTPLHLAARNGHLKIVEVLLKAGADVNAKDFAGKTPLHLAANEGHLEIVEVLLKAGADVNAQDIFGKTPADIAADAGHEDIAEVLQKAAGSPTPTPTTPTPTPTTPTPTPTGSDLGKKLLEAARAGQDDEVRELLKAGADVNAKDYFSHTPLHLAARNGHLKIVEVLLKAGADVNAKDFAGKTPLHLAANEGHLEIVEVLLKAGADVNAQDIFGKTPADIAADAGHEDIAEVLQKAAGSPTPTPTTPTPTPTTPTPTPTGSDLGKKLLQAARAGQLDEVRELLKAGADVNAKDREGITPLHLAAQHGHLEIVEVLLKAGADVNAKDVWGRTPLHLAAWQGHLEIVEVLLKAGADVNAKDLAGATPLHVAALYGHLEIVEVLLKAGADVNAQDKSGKTPADLAARAGHQDIAEVLQKAAGSPTPTPTTPTPTPTTPTPTPTGSDLGNKLLDAAWVGQDDEVRILLAAGADVNAKDWQGETPLHLAATKGHLEIVEVLLKAGADVNAKDVVGYTPLHVAASQGHLEIVEVLLKAGADVNAQDVHGYTPADLAAQAGHEDIAEVLQKAAGSPTPTPTTPTPTPTTPTPTPTGSDLGKKLLQAARAGQLDEVRELLKAGADVNAKDREGKTPLHVAAQEGHLEIVEVLLKAGADVNAKDVWGRTPLHLAAWIGHLEIVEVLLKAGADVNAKDVSGATPLHAAALHGHLEIVEVLLNAGADVNAQDKSGKTPADLAARAGHQDIAEVLQKAA
- Kd [7]: 0.000142 nM
- koff [7]: 1.15e-07 s⁻¹
- kon [7]: 810000 M⁻¹ s⁻¹

B10: vS07_08F10 (designed binder)
chain: MRGSHHHHHHGSDLGHKLLLAAQAGQDDEVRILLAAGADVNAKDVFGQTPLHVAAVAGHLEIVEVLLKAGADVNAKDSIGYTPLHHAARVGHLEIVEVLLKAGADVNAQDWIGITPADLAAFEGHEDIAEVLQKAA
notes: also called S1a
- Kd (bio-S1 Acro [8]): 20 nM
- koff (S ecto U [5]): 0.00086 s⁻¹
- kon (S ecto U [5]): 695000 M⁻¹ s⁻¹
- Kd (S ecto U [6]): 1.2 nM

B11: vS07_08F10v27 (designed binder)
chain: MRGSHHHHHHGSDLGKKLLLAARAGQLDEVRILLKAGADVNAKDVFGQTPLHVAAVAGHLEIVEVLLKAGADVNAKDSIGYTPLHHAARVGHLEIVEVLLKAGADVNAKDWIGITPADLAAFEGHQDIAEVLQKAA
- binding result (bio-S1 Acro [9]): binds

B12: vS07_07F02 (designed binder)
chain: MRGSHHHHHHGSDLGLKLLTAAKQGQDDEVRILLAAGADVNAKDYRGLTPLHYAAAIGHLEIVEVLLKAGADVNAKDQYGATPLHVAAYIGHLEIVEVLLKAGADVNAQDFSGSTPADLAAEEGHEDIAEVLQKAA
notes: also called RN1
- binding result (bio-RBD Fc Acro): binds
- Kd (bio-S ecto Sino [10]): 14 nM

B13: vS07_19G10 (designed binder)
chain: MRGSHHHHHHGSDLGNKLLDAAWVGQDDEVRILLAAGADVNAKDWQGETPLHLAATKGHLEIVEVLLKAGADVNAKDVVGYTPLHVAASQGHLEIVEVLLKAGADVNAQDVHGYTPADLAAQAGHEDIAEVLQKAA
notes: also called R2a
- binding result (bio-RBD Fc Acro): binds
- koff (bio-S ecto Sino [4]): 0.000179 s⁻¹
- kon (bio-S ecto Sino [4]): 693000 M⁻¹ s⁻¹
- Kd (bio-S ecto Sino [1]): 0.26 nM

B14: vS07_08F10v47 (designed binder)
chain: MRGSHHHHHHGSDLGKKLLLAARAGQLDEVRILLKAGADVNAKDVFGQTPLHTAAVAGHLEIVEVLLKAGADVNAKDKVGYTPLHLAAQSGHLEIVEVLLKAGADVNAKDVVGVTPADLAAFEGHQDIAEVLQKAA
- binding result (bio-S1 Acro [9]): binds
